Test results as given in patent US20190218277A1 (Chugai, published 2019).

Key:
[1] = target: T1, Recombinant soluble E protein (0.8E-His) from DENV-1 (DENV-1, UniProt P27909 281-675)
T1 construct: also called DENV-1 E protein; DV1

[2] = target: T2, Recombinant soluble E protein (0.8E-His) from DENV-3 (DENV-3, UniProt P27915 281-673)
T2 construct: also called DENV-3 E protein; DV3

[3] = target: T3, Recombinant soluble E protein (0.8E-His) from DENV-2 (DENV-2, UniProt P14340 281-675); experiment: SPR, Biacore T200
T3 construct: also called DENV-2 E protein; DV2

[4] = target: T4, Recombinant soluble E protein (0.8E-His) from DENV-4 (DENV-4, UniProt P09866 280-674); experiment: SPR, Biacore T200
T4 construct: also called DENV-4 E protein; DV4

Row | Binder | Kd [1] [nM] | Kd [2] [nM] | binding result [3] | binding result [4]
1 | DG_3CH1047-SG1106/3CL-SK1 (antibody) heavy: QVQLVQSGPDVEKPGASVKVSCKASGYTFTSYYMHWVRQAPGQGLEWMGVINPRGGSRRSAQKFQGRITMTRDTSTSTVYMELSSLRSEDTAVYYCARGGEALFYDSYTTPFDGGSWWFDPWGQGSLVTVSSASTKGPSVFPLAPSSKSTSGGTAALGCLVKDYFPEPVTVSWNSGALTSGVHTFPAVLQSSGLYSLSSVVTVPSSSLGTQTYICNVNHKPSNTKVDKRVEPKSCDKTHTCPPCPAPEAAGGPSVFLFPPKPKDTLMISRTPEVTCVVVDVSHEDPEVKFNWYVDGVEVHNAKTKPREEQYNSTYRVVSVLTVLHQDWLNGKEYKCKVSNAALPAPISKTISKAKGQPREPQVYTLPPSREEMTKNQVSLTCLVKGFYPSDIAVEWESNGQPENNYKTTPPVLDSDGSFFLYSKLTVDKSRWQQGNVFSCSVLHEALHAHYTRKELSLSP light: not shown | 2.12 | 0.00471 |  | 
2 | DG_3CH953-SG182/3CL633-SK1 (antibody, V domains shown) VH: QVQLVQSGPDVEKPGASVKVSCKASGYTFTSNYIHWVRQAPGQGLEWMGVINPRGGSRRSAQKFQGRITMTRDTSTSTVYMELSSLRSEDTAVYYCARGGRALFYDSYTTPFDGGSWWFDPWGQGSLVTVSS VL: DIQLTQSPSSLSASVGDRVTITCQASQDIRKYLNWYQQKPGKAPKLLIYDASNLKTGVPSRFSGSGSGTDFTLTISSLQPEDVATYYCQQFDDLPITFGQGTRLQIKR | 1.65 | 0.00496 | binds | binds
3 | DG_3CH987-SG182/3CL012-SK1 (antibody, V domains shown) VH: QVQLVQSGPDVEKPGASVKVSCKASGYTFTSYYIHWVRQAPGQGLEWMGVINPRGGSRRSAQKFQGRITMTRDTSTSTVYMELSSLRSEDTAVYYCARGGRALFYDSYTTPFDGGSWWFDPWGQGSLVTVSS VL: DIQLTQSPSSLSASVGDRVTFTCQASQDIRKYLNWYQQKPGKAPKLLIYDASNLKTGVPSRFSGSGSGTDFTFTISSLQPEDVATYYCQQFEDLPITFGQGTRLQIKR | 1.42 | 0.00267 | binds | binds
4 | DG_3CH953-SG182/3CL666-SK1 (antibody, V domains shown) VH: QVQLVQSGPDVEKPGASVKVSCKASGYTFTSNYIHWVRQAPGQGLEWMGVINPRGGSRRSAQKFQGRITMTRDTSTSTVYMELSSLRSEDTAVYYCARGGRALFYDSYTTPFDGGSWWFDPWGQGSLVTVSS VL: DIQLTQSPSSLSASVGDRVTITCQASQEIRKYLNWYQQKPGKAPKLLIYDASNLKTGVPSRFSGSGSGTDFTLTISSLQPEDVATYYCQQFDDLPITFGQGTRLQIKR | 1.69 | 0.00548 | binds | binds
5 | DG_3CH953-SG1095/3CL-SK1 (antibody, human IgG1, kappa, L234A L235A) heavy: QVQLVQSGPDVEKPGASVKVSCKASGYTFTSNYIHWVRQAPGQGLEWMGVINPRGGSRRSAQKFQGRITMTRDTSTSTVYMELSSLRSEDTAVYYCARGGRALFYDSYTTPFDGGSWWFDPWGQGSLVTVSSASTKGPSVFPLAPSSKSTSGGTAALGCLVKDYFPEPVTVSWNSGALTSGVHTFPAVLQSSGLYSLSSVVTVPSSSLGTQTYICNVNHKPSNTKVDKRVEPKSCDKTHTCPPCPAPEAAGGPSVFLFPPKPKDTLMISRTPEVTCVVVDVSHEDPEVKFNWYVDGVEVHNAKTKPREEQYNSTYRVVSVLTVLHQDWLNGKEYKCKVSNAALPAPISKTISKAKGQPREPQVYTLPPSREEMTKNQVSLTCLVKGFYPSDIAVEWESNGQPENNYKTTPPVLDSDGSFFLYSKLTVDKSRWQQGNVFSCSVMHEALHNHYTQKSLSLSP light: not shown | 1.79 | 0.00703 |  | 
6 | DG_3CH953-SG182/3CL668-SK1 (antibody, V domains shown) VH: QVQLVQSGPDVEKPGASVKVSCKASGYTFTSNYIHWVRQAPGQGLEWMGVINPRGGSRRSAQKFQGRITMTRDTSTSTVYMELSSLRSEDTAVYYCARGGRALFYDSYTTPFDGGSWWFDPWGQGSLVTVSS VL: DIQLTQSPSSLSASVGDRVTITCQASQDIRKYLNWYQQKPGKAPKLLIYDASNLKTGVPSRFSGSGSGTDFTLTISSLQPEDVATYYCQQFEDLPITFGQGTRLQIKR | 1.68 | 0.00236 | binds | binds
7 | DG_3CH953-SG1095/3CL012-SK1 (antibody, human IgG1, kappa, L234A L235A) heavy: QVQLVQSGPDVEKPGASVKVSCKASGYTFTSNYIHWVRQAPGQGLEWMGVINPRGGSRRSAQKFQGRITMTRDTSTSTVYMELSSLRSEDTAVYYCARGGRALFYDSYTTPFDGGSWWFDPWGQGSLVTVSSASTKGPSVFPLAPSSKSTSGGTAALGCLVKDYFPEPVTVSWNSGALTSGVHTFPAVLQSSGLYSLSSVVTVPSSSLGTQTYICNVNHKPSNTKVDKRVEPKSCDKTHTCPPCPAPEAAGGPSVFLFPPKPKDTLMISRTPEVTCVVVDVSHEDPEVKFNWYVDGVEVHNAKTKPREEQYNSTYRVVSVLTVLHQDWLNGKEYKCKVSNAALPAPISKTISKAKGQPREPQVYTLPPSREEMTKNQVSLTCLVKGFYPSDIAVEWESNGQPENNYKTTPPVLDSDGSFFLYSKLTVDKSRWQQGNVFSCSVMHEALHNHYTQKSLSLSP light: not shown | 1.86 | 0.00553 | binds | binds
8 | DG_3CH953-SG1106/3CL-SK1 (antibody) heavy: QVQLVQSGPDVEKPGASVKVSCKASGYTFTSNYIHWVRQAPGQGLEWMGVINPRGGSRRSAQKFQGRITMTRDTSTSTVYMELSSLRSEDTAVYYCARGGRALFYDSYTTPFDGGSWWFDPWGQGSLVTVSSASTKGPSVFPLAPSSKSTSGGTAALGCLVKDYFPEPVTVSWNSGALTSGVHTFPAVLQSSGLYSLSSVVTVPSSSLGTQTYICNVNHKPSNTKVDKRVEPKSCDKTHTCPPCPAPEAAGGPSVFLFPPKPKDTLMISRTPEVTCVVVDVSHEDPEVKFNWYVDGVEVHNAKTKPREEQYNSTYRVVSVLTVLHQDWLNGKEYKCKVSNAALPAPISKTISKAKGQPREPQVYTLPPSREEMTKNQVSLTCLVKGFYPSDIAVEWESNGQPENNYKTTPPVLDSDGSFFLYSKLTVDKSRWQQGNVFSCSVLHEALHAHYTRKELSLSP light: not shown | 1.85 | 0.00708 |  | 
9 | DG_3CH953-SG1095/3CL119-SK1 (antibody) heavy: QVQLVQSGPDVEKPGASVKVSCKASGYTFTSNYIHWVRQAPGQGLEWMGVINPRGGSRRSAQKFQGRITMTRDTSTSTVYMELSSLRSEDTAVYYCARGGRALFYDSYTTPFDGGSWWFDPWGQGSLVTVSSASTKGPSVFPLAPSSKSTSGGTAALGCLVKDYFPEPVTVSWNSGALTSGVHTFPAVLQSSGLYSLSSVVTVPSSSLGTQTYICNVNHKPSNTKVDKRVEPKSCDKTHTCPPCPAPEAAGGPSVFLFPPKPKDTLMISRTPEVTCVVVDVSHEDPEVKFNWYVDGVEVHNAKTKPREEQYNSTYRVVSVLTVLHQDWLNGKEYKCKVSNAALPAPISKTISKAKGQPREPQVYTLPPSREEMTKNQVSLTCLVKGFYPSDIAVEWESNGQPENNYKTTPPVLDSDGSFFLYSKLTVDKSRWQQGNVFSCSVMHEALHNHYTQKSLSLSP light: not shown | 1.99 | 0.00718 | binds | binds
10 | DG_3CH1047-SG1095/3CL-SK1 (antibody, human IgG1, kappa, L234A L235A) heavy: QVQLVQSGPDVEKPGASVKVSCKASGYTFTSYYMHWVRQAPGQGLEWMGVINPRGGSRRSAQKFQGRITMTRDTSTSTVYMELSSLRSEDTAVYYCARGGEALFYDSYTTPFDGGSWWFDPWGQGSLVTVSSASTKGPSVFPLAPSSKSTSGGTAALGCLVKDYFPEPVTVSWNSGALTSGVHTFPAVLQSSGLYSLSSVVTVPSSSLGTQTYICNVNHKPSNTKVDKRVEPKSCDKTHTCPPCPAPEAAGGPSVFLFPPKPKDTLMISRTPEVTCVVVDVSHEDPEVKFNWYVDGVEVHNAKTKPREEQYNSTYRVVSVLTVLHQDWLNGKEYKCKVSNAALPAPISKTISKAKGQPREPQVYTLPPSREEMTKNQVSLTCLVKGFYPSDIAVEWESNGQPENNYKTTPPVLDSDGSFFLYSKLTVDKSRWQQGNVFSCSVMHEALHNHYTQKSLSLSP light: not shown | 2.09 | 0.00293 |  | 
